According to publication PMC8269243:

Molecular target: TYLCV coat protein (CP) in viruliferous whiteflies (tomato yellow leaf curl virus (TYLCV) isolate SH2)

Vitellogenin (Vg) of MEAM1 whitefly (Bta07851), endogenous (natural protein)
proportion of phase V midguts (TYLCV movement across the midgut, IFA) in Vg antibody-treated whiteflies after a 24-h AAP; control group 55%: 30% | reduction of the disease incidence rate of tomato plants in the Vg antibody treatment against the control, 15 days (27%) and 30 days (35%) posttransmission: 35%
